Source: patent publication US20220089678A1

Biological target: human BCMA on cells (human) (UniProt Q02223)
Test: cell-based or functional assay

Chain of human BCMA on cells (human) (Q02223 whole entry): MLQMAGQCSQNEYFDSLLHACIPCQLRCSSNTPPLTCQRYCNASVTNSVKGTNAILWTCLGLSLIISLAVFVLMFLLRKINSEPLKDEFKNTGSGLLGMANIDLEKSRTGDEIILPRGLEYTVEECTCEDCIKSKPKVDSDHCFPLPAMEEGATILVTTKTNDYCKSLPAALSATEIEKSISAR

B1: CAR with OX40-CD3z cytoplasmic domain of SEQ ID: 105 (protein, part only; not given: anti-BCMA scFv, hinge, transmembrane, part only)
chain, part: RRDQRLPPDAHKPPGGGSFRTPIQEEQADAHSTLAKIRVKFSRSADAPAYQQGQNQLYNELNLGRREEYDVLDKRRGRDPEMGGKPRRKNPQEGLYNELQKDKMAEAYSEIGMKGERRRGKGHDGLYQGLSTATKDTYDALHMQALPPR
Question: B1 was tested. Which Killing (% killed), Effector:target ratio of 1:10 did it give?
Answer: 46%
